{
  "source": "patent US20150266922A1",
  "key": {"[1]": {"target": "Dipeptidyl peptidase 9 (DPP9), recombinant wild-type (human) (UniProt Q86TI2)", "sequence (Q86TI2 other isoform, or with tags, fused parts or gaps limits assumed, form in doubt)": "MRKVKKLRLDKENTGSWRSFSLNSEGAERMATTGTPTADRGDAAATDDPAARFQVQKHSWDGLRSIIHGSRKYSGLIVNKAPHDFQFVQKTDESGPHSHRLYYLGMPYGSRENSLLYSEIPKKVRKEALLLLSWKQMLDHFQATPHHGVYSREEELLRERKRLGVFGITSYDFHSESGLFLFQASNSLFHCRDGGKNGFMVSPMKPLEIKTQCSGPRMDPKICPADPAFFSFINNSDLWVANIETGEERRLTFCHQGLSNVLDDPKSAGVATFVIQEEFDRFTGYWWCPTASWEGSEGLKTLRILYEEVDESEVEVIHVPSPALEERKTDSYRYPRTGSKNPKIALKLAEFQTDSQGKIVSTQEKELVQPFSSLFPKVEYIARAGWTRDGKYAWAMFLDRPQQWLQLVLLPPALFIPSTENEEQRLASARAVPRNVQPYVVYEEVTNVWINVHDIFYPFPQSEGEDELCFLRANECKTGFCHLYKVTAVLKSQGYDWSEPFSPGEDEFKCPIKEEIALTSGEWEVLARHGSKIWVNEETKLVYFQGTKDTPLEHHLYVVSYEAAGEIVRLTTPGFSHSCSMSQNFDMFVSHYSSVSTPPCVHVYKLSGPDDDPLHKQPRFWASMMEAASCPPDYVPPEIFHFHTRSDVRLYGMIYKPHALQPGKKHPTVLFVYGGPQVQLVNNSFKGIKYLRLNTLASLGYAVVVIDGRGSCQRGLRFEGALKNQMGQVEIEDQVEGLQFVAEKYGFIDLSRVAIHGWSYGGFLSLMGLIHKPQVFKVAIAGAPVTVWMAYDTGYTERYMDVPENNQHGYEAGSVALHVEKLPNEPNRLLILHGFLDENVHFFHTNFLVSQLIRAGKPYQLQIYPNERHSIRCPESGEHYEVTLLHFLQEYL", "test": "cell-based or functional assay"}, "[2]": {"target": "Dipeptidyl peptidase 8 (DPP8), recombinant (human) (UniProt Q6V1X1)", "sequence (Q6V1X1 whole entry, form in doubt)": "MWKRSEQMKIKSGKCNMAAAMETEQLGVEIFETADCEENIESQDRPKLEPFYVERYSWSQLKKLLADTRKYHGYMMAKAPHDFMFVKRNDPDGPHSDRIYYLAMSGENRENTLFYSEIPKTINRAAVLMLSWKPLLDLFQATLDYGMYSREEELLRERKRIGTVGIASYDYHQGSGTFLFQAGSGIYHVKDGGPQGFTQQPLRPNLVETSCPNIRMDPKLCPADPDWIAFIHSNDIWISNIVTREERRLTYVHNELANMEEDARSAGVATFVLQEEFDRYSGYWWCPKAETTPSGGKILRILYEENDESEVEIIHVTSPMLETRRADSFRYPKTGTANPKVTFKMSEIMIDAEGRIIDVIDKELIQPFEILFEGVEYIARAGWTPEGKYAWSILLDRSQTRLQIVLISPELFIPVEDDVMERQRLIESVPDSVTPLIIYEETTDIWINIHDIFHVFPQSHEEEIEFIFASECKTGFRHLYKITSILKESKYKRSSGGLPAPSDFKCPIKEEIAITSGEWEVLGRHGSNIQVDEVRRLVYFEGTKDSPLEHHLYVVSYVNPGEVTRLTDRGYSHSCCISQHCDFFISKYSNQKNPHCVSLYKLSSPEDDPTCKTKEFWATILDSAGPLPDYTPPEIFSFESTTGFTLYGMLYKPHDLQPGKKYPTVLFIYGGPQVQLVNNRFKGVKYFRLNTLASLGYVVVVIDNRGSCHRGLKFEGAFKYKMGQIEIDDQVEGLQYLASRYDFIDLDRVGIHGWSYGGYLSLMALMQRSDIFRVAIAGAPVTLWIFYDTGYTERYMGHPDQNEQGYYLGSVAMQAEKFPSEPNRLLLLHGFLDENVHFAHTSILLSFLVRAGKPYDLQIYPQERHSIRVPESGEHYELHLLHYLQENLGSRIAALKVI", "test": "cell-based or functional assay"}, "[3]": {"target": "Dipeptidyl peptidase 9 (DPP9), recombinant wild-type (human) (UniProt Q86TI2)", "test": "enzyme kinetics, GP-AMC hydrolysis by 25 nM recombinant DPP9 with 0, 5 or 20 µM peptide"}, "[4]": {"target": "Dipeptidyl peptidase 8 (DPP8), recombinant (human) (UniProt Q6V1X1)", "test": "ratio of Ki values, DPP8 against DPP9"}, "[5]": {"target": "Dipeptidyl peptidase 9 (DPP9), recombinant wild-type (human) (UniProt Q86TI2)", "test": "enzyme kinetics, GP-AMC hydrolysis by recombinant DPP9"}, "[6]": {"target": "Dipeptidyl peptidase 8 (DPP8), recombinant (human) (UniProt Q6V1X1)", "test": "enzyme kinetics, GP-AMC hydrolysis by recombinant DPP8"}, "[7]": {"target": "Dipeptidyl peptidase 9 (DPP9), recombinant wild-type (human) (UniProt Q86TI2)", "test": "ratio of Ki values for DPP9, reference EIL peptide"}},
  "data": [
    {"substance": "SUMO1 (from UniProt P63165 1-97)", "values": [
      {"measurement": "AMC release from GP-AMC in the unbound fraction (depleted lysates)", "setting": "[1]", "value": 40, "unit": "%"},
      {"measurement": "AMC release from GP-AMC in the unbound fraction (depleted lysates)", "setting": "[2]", "value": 40, "unit": "%"}
    ]},
    {"substance": "SLRFLFEG (SEQ ID NO: 37) (peptide)", "values": [
      {"measurement": "Ki", "setting": "[3]", "value": 2000, "unit": "nM"},
      {"measurement": "% DPP9 activity (Mean), 10 µM peptide", "setting": "[1]", "value": 24.1, "unit": "%"}
    ]},
    {"substance": "SLRFLYEG (SEQ ID NO: 38) (peptide)", "values": [
      {"measurement": "fold lower affinity compared to DPP9", "setting": "[4]", "value": 9, "unit": "fold"},
      {"measurement": "Ki", "setting": "[5]", "value": 400, "unit": "nM"},
      {"measurement": "Ki", "setting": "[6]", "value": 3600, "unit": "nM"},
      {"measurement": "% DPP9 activity (Mean), 10 µM peptide", "setting": "[1]", "value": 10.9, "unit": "%"},
      {"measurement": "fold increased efficiency compared to the EIL peptide", "setting": "[7]", "value": 18.5, "unit": "fold"}
    ]}
  ]
}
